Assays:
[1] = biological target: T1, pig Sdc2 (pig, UniProt F1S0L5 19-145); assay: Octet BLI, heading box over the sensorgram; the box prints nm, the table gives 1.50E-08 M
T1 construct: also called pSdc2
Description: In order to characterize the binding affinity and in vivo/in vitro functional ability of the twelve clones generated by the previous studies and disclosed in Table 1, a series of assays were performed on each clone. These assays measured the affinity of each antibody clone for human, pig, and mouse Sdc2 using an Octet® binding assay system. Additionally, the functional ability of each clone to inhibit VEGFA-driven permeability (see Santiago, et al. (2021) J Am Heart Assoc. 10(18):e020521) was assessed in two therapeutic settings: a “prevention” study in which three concentrations of antibody (5 μg/ml, 10 μg/ml, 15 μg/ml, 20 μg/ml, and/or 40 μg/ml depending on the study) were pre-incubated for an hour before administration of 100 ng/ml of VEGFA, and a “treatment” study in which 3 hours of pre-treatment with 100 ng/ml VEGFA were followed by treatment with antibody at 20 μg/ml or 40 μg/ml. Results are shown for 8-G17 in FIG. 8 and FIG. 9, 20-H19-AB in FIG. 10 and FIG. 11 (FIG. 12 for monkey ECs), R3-P3-C11 in FIG. 13 and FIG. 14, R4M-P3-E06 in FIG. 15 and FIG. 16, R3-P3-E09 in FIG. 17 and FIG. 18, R3-P1-C02 in FIG. 19 and FIG. 20, R3-P3-A12 in FIG. 21 and FIG. 22, R4M-P3-A12 in FIG. 23 and FIG. 24, and R4M-P1-A10 in FIG. 25 and FIG. 26.

[2] = biological target: T2, human Sdc2 (human, UniProt P34741 19-144, limits assumed); assay: Octet tandem binning; saturating Ab f10 19838-10-I12-A
T2 construct: Antigen of the Octet tandem binning, loaded on biosensors at 100 nM; also called huSdc2; hSdc2
T2 sequence (P34741 19-144 limits assumed): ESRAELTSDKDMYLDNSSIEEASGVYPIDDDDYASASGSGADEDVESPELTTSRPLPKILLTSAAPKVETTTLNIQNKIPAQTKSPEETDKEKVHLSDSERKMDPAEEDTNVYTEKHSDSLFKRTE

[3] = biological target: T2, human Sdc2; assay: Octet tandem binning; saturating Ab m3 19844-R3-P1-C02 (row boxed, self-self >0.09)
[4] = biological target: T2, human Sdc2; assay: Octet tandem binning; saturating Ab m8 19844-R4M-P1-B01 (marked non-binding ligand)
[5] = biological target: T3, mouse Sdc2 (mouse, UniProt P43407 19-145, limits assumed); assay: Octet BLI, HIS1K sensor loaded with moSdc2, antibody as sample; Full R2 0.9584
T3 construct: Immobilised on Maxisorp plates for panning and ELISA; also called mSdc2; moSdc2
T3 sequence (P43407 19-145 limits assumed): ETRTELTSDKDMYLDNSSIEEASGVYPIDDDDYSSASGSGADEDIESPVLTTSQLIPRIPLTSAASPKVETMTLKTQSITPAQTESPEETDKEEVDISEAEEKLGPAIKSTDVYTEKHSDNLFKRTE

[6] = biological target: T2, human Sdc2; assay: Octet tandem binning; saturating Ab m4 19844-R4M-P1-A10
How it was run: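 Octet sensors bearing 100 nM human Sdc2 got a 240 s saturating-antibody dip at 25 μg/ml and then a 180 s competitor dip at 5 μg/ml. Signal ratios are relative to buffer in place of the saturating step.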

[7] = biological target: T2, human Sdc2; assay: Octet tandem binning; saturating Ab f8 19844-R4M-P2-C02
[8] = biological target: T2, human Sdc2; assay: Octet tandem binning; saturating Ab m6 19838-20H19-AA (marked non-binding ligand)

B1: R4M-P3-A12 (antibody, human IgG1, kappa, V domains shown)
VH: EVQLVESGGGVVQPGGSLRLSCAASGFTFSDHYMSWIRQAPGKGLEWVSYLSGSGTSIYYADSVKGRFTISRDNAKKSLYLQMNSLRAEDTAVYYCARVGPAAGNAFDIWGQGTMVTVSS
VL: QSVLTQPPSASGTPGQRVTISCSGSSSNIGSNYVYWYQQLPGTAPKLLIYRNNQRPSGVPDRFSGSKSGTSASLAITGLQAEDEADYYCQSYDSSLSGVVFGGGTKLTVLR
In the case of B1, the Kd [1] is reported as roughly 15 nM, the “raw competing-Ab binding signal” value [2] is reported as 0.152 and the “raw competing-Ab binding signal” value [3] is reported as 0.0422. The “raw competing-Ab binding signal” value [4] was 0.0929, the Kd [5] was 11.6 nM and the koff [5] was 0.00914 s⁻¹. The kon [5] was 3.74e+06 M⁻¹ s⁻¹, the “raw competing-Ab binding signal” value [6] was -0.0712 and the “raw competing-Ab binding signal” value [7] was 0.0077. For the same binder, the “raw competing-Ab binding signal” value [8] was 0.165.
